Measured values from patent publication US20190241648A1 (STATEN BIOTECHNOLOGY B V, published 2019).
Blank lines part the entries; values can stand above or below the binder they belong to. Ends that are not written are not given here.

What was measured:
ApoC3 peptide L67E = target: T1, ApoC3 peptide L67E (human, thioether (positions not given here); not fully specified (bridges); also: thioether between a C-terminal Cys side chain and a modified N-terminus, the Cys is not in the chain); test: peptide microarray
T1 peptide: DKFSEFWDEDPEV

ApoC3 peptide E63C = target: T2, ApoC3 peptide E63C (human, not fully specified; cyclic (thioether)); test: peptide microarray
T2 peptide: DKFSCFWDLDPEV

ApoC3 peptide S62F = target: T3, ApoC3 peptide S62F (human, not fully specified; cyclic (thioether)); test: peptide microarray
T3 peptide: DKFFEFWDLDPEV

ApoC3 peptide E63Y = target: T4, ApoC3 peptide E63Y (human, cyclic (thioether)); test: peptide microarray
T4 peptide: DKFSYFWDLDPEV

ApoC3 peptide L67A = target: T5, ApoC3 peptide L67A (human, not fully specified; cyclic (thioether)); test: peptide microarray
T5 peptide: DKFSEFWDADPEV

ApoC3 peptide … E63A = ApoC3 peptide … E63A (human, cyclic constrained); test: peptide microarray
Method in brief: (§1)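 ApoC3 peptide microarrays incubated with antibody samples and then stained with goat anti-human IgG (Fc) DyLight680 plus anti-HA DyLight800 control antibody. Scanned at intensity 7/7 (red/green); a secondary-only prestain checked for background, and framing HA peptides served as quality control.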

ApoC3 peptide … F61Y = target: T6, ApoC3 peptide … F61Y (human, not fully specified (bridges); also: cyclic constrained); test: peptide microarray
T6 peptide: DKYSEFWDLDPEV
Method in brief: as §1

ApoC3 peptide … K60Y = target: T7, ApoC3 peptide … K60Y (human, not fully specified (bridges); also: cyclic constrained); test: peptide microarray
T7 peptide: DYFSEFWDLDPEV
Method in brief: as §1

ApoC3 peptide … E70Y = target: T8, ApoC3 peptide … E70Y (human, cyclic constrained); test: peptide microarray
T8 peptide: DKFSEFWDLDPYV
Method in brief: as §1

ApoC3 peptide … L67D = target: T9, ApoC3 peptide … L67D (human, not fully specified (bridges); also: cyclic constrained); test: peptide microarray
T9 peptide: DKFSEFWDDDPEV
Method in brief: as §1

ApoC3 peptide … K60M = target: T10, ApoC3 peptide … K60M (human, not fully specified (bridges); also: cyclic constrained); test: peptide microarray
T10 peptide: DMFSEFWDLDPEV
Method in brief: as §1

ApoC3 peptide … F61W = target: T11, ApoC3 peptide … F61W (human, not fully specified (bridges); also: cyclic constrained); test: peptide microarray
T11 peptide: DKWSEFWDLDPEV
Method in brief: as §1

ApoC3 peptide … F61H = target: T12, ApoC3 peptide … F61H (human, cyclic constrained); test: peptide microarray
T12 peptide: DKHSEFWDLDPEV
Method in brief: as §1

ApoC3 peptide … W65E = ApoC3 peptide … W65E (human, cyclic constrained); test: peptide microarray
Method in brief: as §1

ApoC3 peptide … F64W = target: T13, ApoC3 peptide … F64W (human, not fully specified (bridges); also: cyclic constrained); test: peptide microarray
T13 peptide: DKFSEWWDLDPEV
Method in brief: as §1

ApoC3 peptide … E63S = ApoC3 peptide … E63S (human, cyclic constrained); test: peptide microarray
Method in brief: as §1

ApoC3 peptide … F64A = target: T14, ApoC3 peptide … F64A (human, not fully specified (bridges); also: cyclic constrained); test: peptide microarray
T14 peptide: DKFSEAWDLDPEV
Method in brief: as §1

ApoC3 peptide … V71M = ApoC3 peptide … V71M (human, cyclic constrained); test: peptide microarray
Method in brief: as §1

ApoC3 peptide … V71F = ApoC3 peptide … V71F (human, cyclic constrained); test: peptide microarray
Method in brief: as §1

ApoC3 peptide … V71L = ApoC3 peptide … V71L (human, cyclic constrained); test: peptide microarray
Method in brief: as §1

ApoC3 peptide … K60A = target: T15, ApoC3 peptide … K60A (human, not fully specified (bridges); also: cyclic constrained); test: peptide microarray
T15 peptide: DAFSEFWDLDPEV
Method in brief: as §1

ApoC3 peptide … E70T = target: T16, ApoC3 peptide … E70T (human, cyclic constrained); test: peptide microarray
T16 peptide: DKFSEFWDLDPTV
Method in brief: as §1

ApoC3 peptide … E63V = ApoC3 peptide … E63V (human, cyclic constrained); test: peptide microarray
Method in brief: as §1

ApoC3 peptide … L67M = target: T17, ApoC3 peptide … L67M (human, not fully specified (bridges); also: cyclic constrained); test: peptide microarray
T17 peptide: DKFSEFWDMDPEV
Method in brief: as §1

ApoC3 peptide … K60I = target: T18, ApoC3 peptide … K60I (human, not fully specified (bridges); also: cyclic constrained); test: peptide microarray
T18 peptide: DIFSEFWDLDPEV
Method in brief: as §1

ApoC3 peptide … L67Y = target: T19, ApoC3 peptide … L67Y (human, not fully specified (bridges); also: cyclic constrained); test: peptide microarray
T19 peptide: DKFSEFWDYDPEV
Method in brief: as §1

ApoC3 peptide … D59W = target: T20, ApoC3 peptide … D59W (human, not fully specified (bridges); also: cyclic constrained); test: peptide microarray
T20 peptide: WKFSEFWDLDPEV
Method in brief: as §1

[1] = target: T21, ApoC3 peptide … V43T (human); test: peptide microarray
T21 sequence (peptide, cyclic constrained): ARGWTTDGFSSLK

[2] = target: T22, ApoC3 peptide … D45T (human); test: peptide microarray
T22 sequence (peptide, cyclic constrained): ARGWVTTGFSSLK

[3] = target: T23, ApoC3 peptide … G41V (human); test: peptide microarray
T23 sequence (peptide, cyclic constrained): ARVWVTDGFSSLK

[4] = target: T24, ApoC3 peptide … G41P (human); test: peptide microarray
T24 sequence (peptide, cyclic constrained): ARPWVTDGFSSLK

[5] = target: T25, ApoC3 peptide … G41T (human); test: peptide microarray
T25 sequence (peptide, cyclic constrained): ARTWVTDGFSSLK

[6] = target: T26, ApoC3 peptide … V43Q (human); test: peptide microarray
T26 sequence (peptide, cyclic constrained): ARGWQTDGFSSLK

[7] = target: T27, ApoC3 peptide … V43W (human); test: peptide microarray
T27 sequence (peptide, cyclic constrained): ARGWWTDGFSSLK

ApoC3 peptide … L67N = target: T28, ApoC3 peptide … L67N (human, not fully specified (bridges); also: cyclic constrained); test: cyclic peptide substitution array
T28 peptide: DKFSEFWDNDPEV

ApoC3 peptide … E63W = ApoC3 peptide … E63W (human, cyclic constrained); test: cyclic peptide substitution array
ApoC3 peptide … F61I = target: T29, ApoC3 peptide … F61I (human, cyclic constrained); test: cyclic peptide substitution array
T29 peptide: DKISEFWDLDPEV

% of binding to wild-type peptide (ApoC3 peptide L67E): 8.52%
% of binding to wild-type peptide (ApoC3 peptide E63C): 7.93%
% of binding to wild-type peptide (ApoC3 peptide S62F): 9.54%
% of binding to wild-type peptide (ApoC3 peptide E63Y): 8.92%
% of binding to wild-type peptide (ApoC3 peptide L67A): 9.07%
% of binding to wild-type peptide (ApoC3 peptide … E63A): 36.7%
% of binding to wild-type peptide (ApoC3 peptide … F61Y): 112%
% of binding to wild-type peptide (ApoC3 peptide … K60Y): 83.9%
% of binding to wild-type peptide (ApoC3 peptide … E70Y): 4.49%
% of binding to wild-type peptide (ApoC3 peptide … L67D): 2.89%
% of binding to wild-type peptide (ApoC3 peptide … K60M): 146%
% of binding to wild-type peptide (ApoC3 peptide … F61W): 32.9%
% of binding to wild-type peptide (ApoC3 peptide … F61H): 44.2%
% of binding to wild-type peptide (ApoC3 peptide … W65E): 168%
% of binding to wild-type peptide (ApoC3 peptide … F64W): 69.5%
% of binding to wild-type peptide (ApoC3 peptide … E63S): 35.2%
% of binding to wild-type peptide (ApoC3 peptide … F64A): 166%
% of binding to wild-type peptide (ApoC3 peptide … V71M): 105%
% of binding to wild-type peptide (ApoC3 peptide … V71F): 85.4%
% of binding to wild-type peptide (ApoC3 peptide … V71L): 78%
% of binding to wild-type peptide (ApoC3 peptide … K60A): 120%
% of binding to wild-type peptide (ApoC3 peptide … E70T): 1.55%
% of binding to wild-type peptide (ApoC3 peptide … E63V): 13%
% of binding to wild-type peptide (ApoC3 peptide … L67M): 43.4%
% of binding to wild-type peptide (ApoC3 peptide … K60I): 116%
% of binding to wild-type peptide (ApoC3 peptide … L67Y): 3.08%
% of binding to wild-type peptide (ApoC3 peptide … D59W): 78.1%
B1: anti-ApoC3 antibody 6A6 (antibody, V domains shown)
VH: EVQLVESGGGLVQPGGSLRLSCAASGFTFSSYAGRWVRQVPGKGLEWVSSINAGGGSTSYADSVKGRFTISRDNAKNTLYLQMNSLKPEDTAKYYCTQNSYRYWGQGTRVAVSS
VL: DVVLTQTPGSLSVVPGESASISCKASQSLIHTDGKTYLYWLLQKPGQRPQLLIYQVSSHESGVPDRFTGSGSGTDFTLKISGVKAEDAGVYYCAQATYNPRTFGQGTKLEIK
notes: it was detected with goat anti-human IgG (Fc); also called mAb 6A6; llama antibody 6A6

% of binding to wild-type peptide [1]: 9.94%
% of binding to wild-type peptide [2]: 8.67%
% of binding to wild-type peptide [3]: 8.76%
% of binding to wild-type peptide [4]: 8.7%
% of binding to wild-type peptide [5]: 9.44%
% of binding to wild-type peptide [6]: 7.49%
% of binding to wild-type peptide [7]: 8.98%
B2: anti-ApoC3 antibody 14C7 (antibody, V domains shown)
VH: QVQVQESGPGLVKPSQTLSLTCTVSGGSITTNSYYWSWIRQPPGKGLEWMGAIDYSGDTYYSPSLKSRTSISRDTSKNQFTLQLTSVTPEDTAVYYCVSRIPTGEYWGQGTQVTVSS
VL: QTVVTQEPSLSVSPGGTVTLTCGLNSGSVTSSNYPDWYQQTPGQAPRLLIYNTNSRHSGVPSRFSGSISGNKAALTITGAQPEDEADYYCALYMGSDSVVFGGGTHLTVL
notes: it was detected with goat anti-human IgG (Fc); also called mAb 14C7; llama antibody 14C7

% of binding to wild-type peptide (ApoC3 peptide … L67N): 9.84%
% of binding to wild-type peptide (ApoC3 peptide … E63W): 9.57%
% of binding to wild-type peptide (ApoC3 peptide … F61I): 7.59%
B3: Llama antibody 5E5 (antibody, V domains shown)
VH: QLQLVESGGGLVQPGGSLRLSCAASGFTFGTYSMRWVRQVPRKALEWVSSISTDGGGTAYRDSVKGRFTISRDNAKNTLYLQMNNLKPEDTAIYYCVIAGYSDWGQGTQVTVSS
VL: ATMLTQSPGSLSVVPGESASISCKTSQGLVHSDGKTYFYWFLQKPGQSPQQLIYQVSNRASGVPDRFTGSGSGTDFTLKISGVKAEDAGVYYCAQGTYYPHTFGSGTRLEIK
notes: detected with goat anti-human IgG (Fc); also called mAb 5E5
